Test results: the supplement of paper PMC7125110
± gives the standard error. Fewer inactive variants are shown than the library holds.

B1: glmS ribozyme (parent)
chain: AUAAAAGCGCCAGAACUACAGAAAUGUAGUUGACGAGGAGGAGGUUUAUCGAAUUUUCGGCGGAUGCCUCCAAA

Columns and labels:
Conditions in all cases: with glucosamine-6-phosphate
glucosamine-6-phosphate [1] = variants of: B1; assay: self-cleavage kobs at 40 uM GlcN6P; higher = faster cleavage; RNA array
Outline: (§1)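 The measurements used barcoded ribozyme variants on sequenced MiSeq chips, transcribed in situ by E. coli RNA polymerase and tracked at 37 °C with a hybridised Cy3 probe. Glucosamine-6-phosphate, 40 μM to 10 mM in HEPES/KCl/Mg(OAc)2 buffer, was flowed in while tiles were imaged over ~14 h. Baseline-normalised signals, also normalised to non-cleaving reference variants, gave per-tile medians that were fit to one- or two-exponential decays for kobs. kcat and KM resulted from weighted Michaelis–Menten fits across concentrations.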

glucosamine-6-phosphate [2] = variants of: B1; assay: self-cleavage kobs at 10000 uM GlcN6P; higher = faster cleavage; RNA array
Outline: as §1

glucosamine-6-phosphate [3] = variants of: B1; assay: self-cleavage kobs at 2500 uM GlcN6P; higher = faster cleavage; RNA array
Outline: as §1

glucosamine-6-phosphate [4] = variants of: B1; assay: self-cleavage kobs at 160 uM GlcN6P; higher = faster cleavage; RNA array
Outline: as §1

glucosamine-6-phosphate [5] = variants of: B1; assay: self-cleavage kobs at 640 uM GlcN6P; higher = faster cleavage; RNA array
Outline: as §1

Variant	self-cleavage kobs at 40 uM GlcN6P (glucosamine-6-phosphate [1]) [s⁻¹]	self-cleavage kobs at 10000 uM GlcN6P (glucosamine-6-phosphate [2]) [s⁻¹]	self-cleavage kobs at 2500 uM GlcN6P (glucosamine-6-phosphate [3]) [s⁻¹]	self-cleavage kobs at 160 uM GlcN6P (glucosamine-6-phosphate [4]) [s⁻¹]	self-cleavage kobs at 640 uM GlcN6P (glucosamine-6-phosphate [5]) [s⁻¹]
G7C G9C U31C G40A	< 1e-05	< 1e-05			
A12U U45G U46A	0.000262 ± 8.5e-05		0.00886 ± 0.0031		
G29A C50G A53U G66U	5.27e-05 ± 2.6e-05				
G43U C68A	0.00235 ± 0.00036	0.0761 ± 0.024	0.0175 ± 0.005	0.00333 ± 0.00054	0.0194 ± 0.0032
A52U G63C	< 1e-05	< 1e-05		< 1e-05	< 1e-05
A12C U46C C50G G63U C67G C68U	0.000202 ± 7.2e-05	0.000454 ± 0.00012			
A39C G44A G60U C68U	< 1e-05				
A36G A53G	< 1e-05			< 1e-05	< 1e-05
U31G A39U C61U	< 1e-05				
C8U U30A G62A U65A C71U	< 1e-05				
G40A G60A	< 1e-05			< 1e-05	< 1e-05
U49A C58A	< 1e-05			< 1e-05	< 1e-05
C10U G35C A52U	< 1e-05				
C10U C34G C58U	< 1e-05				
G60C A64U	< 1e-05	< 1e-05	< 1e-05	< 1e-05	< 1e-05
G38A G43U C67U	< 1e-05	< 1e-05			
G32A C50U	< 1e-05				< 1e-05
C10U G35U C67U	< 1e-05				
A6C C8G G51A C71U	< 1e-05	< 1e-05			
G40C U57A	< 1e-05			< 1e-05	
U30A C58G U65C	< 1e-05				
G9A A48G	< 1e-05	< 1e-05	< 1e-05		< 1e-05
C11G U54C	< 1e-05				
G60A G62U	< 1e-05		< 1e-05	< 1e-05	< 1e-05
G7C G40C	< 1e-05	< 1e-05	< 1e-05		
A36C U49A G62C C70U	< 1e-05	< 1e-05			

Variant	self-cleavage kobs at 40 uM GlcN6P (glucosamine-6-phosphate [1]) [s⁻¹]	self-cleavage kobs at 10000 uM GlcN6P (glucosamine-6-phosphate [2]) [s⁻¹]	self-cleavage kobs at 2500 uM GlcN6P (glucosamine-6-phosphate [3]) [s⁻¹]	self-cleavage kobs at 160 uM GlcN6P (glucosamine-6-phosphate [4]) [s⁻¹]	self-cleavage kobs at 640 uM GlcN6P (glucosamine-6-phosphate [5]) [s⁻¹]
G40U U54A	7.88e-05 ± 1.1e-05	0.0025 ± 0.00054	0.00192 ± 0.00039	0.000207 ± 2.7e-05	0.000391 ± 5.1e-05
A6G A14G G32C G44A A53C U65G C68U	< 1e-05		< 1e-05		
G9U G41C	< 1e-05		< 1e-05	< 1e-05	
G9U U69C	< 1e-05		< 1e-05		
A48C U69G C70U	< 1e-05	< 1e-05	< 1e-05		
C8A G9U	< 1e-05	< 1e-05	< 1e-05	< 1e-05	< 1e-05
G41U U45A	8.05e-05 ± 2.1e-05	0.000309 ± 5.5e-05			
U31G C50G	6.22e-05 ± 1.5e-05	3.31e-05 ± 1.1e-05	0.00013 ± 1.9e-05	0.000172 ± 3e-05	0.000175 ± 4.5e-05
G44C U54A U57A U65G U69G	< 1e-05	< 1e-05			
C34A G62C	< 1e-05	< 1e-05	< 1e-05	< 1e-05	< 1e-05
G38C A42G	< 1e-05	< 1e-05	< 1e-05	< 1e-05	< 1e-05
G29U G35U A36G	< 1e-05				
C16A C34G	< 1e-05				< 1e-05
G29C U31A U46A A53C C71U	< 1e-05				
G29A U56A G63C	< 1e-05				
G9A C34A G44U U54A C68A	< 1e-05				
A6U G63U	< 1e-05		< 1e-05	< 1e-05	< 1e-05
G32U C50G C68G	0.00012 ± 2.5e-05	9.96e-05 ± 1.7e-05			
G7C C10U A15U U49C	< 1e-05	< 1e-05			
A36C G41C U54G G66C C68G	< 1e-05				
G59U G63U C67A	< 1e-05	< 1e-05			
G13C U49C	< 1e-05	< 1e-05	< 1e-05		
C8A G41U	< 1e-05	< 1e-05	< 1e-05	< 1e-05	< 1e-05
G13A C34A A36U C68G	8.42e-05 ± 3e-05	6.2e-05 ± 2.4e-05			
C8U A39C	< 1e-05	< 1e-05	< 1e-05	< 1e-05	< 1e-05
